Measured values reported in patent publication CN117886935A (BEIJING KENUO XINCHENG TECH CO LTD, dated 2024).

Experiments:
[1] = molecular target: T1, 人CSF-1R-his重组蛋白 (human CSF-1R-his recombinant protein) (human, UniProt P07333 20-512, limits assumed); experiment: BLI (ForteBio)
T1 construct: Analyte of the ForteBio assay, 60 nM; also called CD115; M-CSF-R; not shown: His tag

[2] = molecular target: CSF-1R on CSF-1R/SRE-Luc/HEK293 reporter cells (UniProt P07333 20-972, limits assumed); experiment: cell-based or functional assay
[3] = molecular target: T2, CSF-1R on rhCSF-1R-CHO cells (human, UniProt P07333 20-972); experiment: flow cytometry on rhCSF-1R-CHO cells, FITC goat anti-human
T2 construct: whole, on cells; also called 细胞表面CSF-1R; CSF-1R-CHO细胞

[4] = molecular target: T3, CSF-1R-mFc (human, UniProt P07333 20-512, limits assumed); experiment: competition ELISA: CSF1-His coated, CSF-1R-mFc 0.15 μg/ml premixed with antibody
T3 construct: not shown: mouse Fc (mFc)

[5] = molecular target: T3, CSF-1R-mFc; experiment: competition ELISA: human IL-34 coated, CSF-1R-mFc 0.15 μg/ml premixed with antibody
[6] = molecular target: T1, 人CSF-1R-his重组蛋白 (human CSF-1R-his …); experiment: BLI (ForteBio), antibody on AHC probe, CSF-1R-his 60 nM, 1:1 fit

T2 sequence (P07333 20-972): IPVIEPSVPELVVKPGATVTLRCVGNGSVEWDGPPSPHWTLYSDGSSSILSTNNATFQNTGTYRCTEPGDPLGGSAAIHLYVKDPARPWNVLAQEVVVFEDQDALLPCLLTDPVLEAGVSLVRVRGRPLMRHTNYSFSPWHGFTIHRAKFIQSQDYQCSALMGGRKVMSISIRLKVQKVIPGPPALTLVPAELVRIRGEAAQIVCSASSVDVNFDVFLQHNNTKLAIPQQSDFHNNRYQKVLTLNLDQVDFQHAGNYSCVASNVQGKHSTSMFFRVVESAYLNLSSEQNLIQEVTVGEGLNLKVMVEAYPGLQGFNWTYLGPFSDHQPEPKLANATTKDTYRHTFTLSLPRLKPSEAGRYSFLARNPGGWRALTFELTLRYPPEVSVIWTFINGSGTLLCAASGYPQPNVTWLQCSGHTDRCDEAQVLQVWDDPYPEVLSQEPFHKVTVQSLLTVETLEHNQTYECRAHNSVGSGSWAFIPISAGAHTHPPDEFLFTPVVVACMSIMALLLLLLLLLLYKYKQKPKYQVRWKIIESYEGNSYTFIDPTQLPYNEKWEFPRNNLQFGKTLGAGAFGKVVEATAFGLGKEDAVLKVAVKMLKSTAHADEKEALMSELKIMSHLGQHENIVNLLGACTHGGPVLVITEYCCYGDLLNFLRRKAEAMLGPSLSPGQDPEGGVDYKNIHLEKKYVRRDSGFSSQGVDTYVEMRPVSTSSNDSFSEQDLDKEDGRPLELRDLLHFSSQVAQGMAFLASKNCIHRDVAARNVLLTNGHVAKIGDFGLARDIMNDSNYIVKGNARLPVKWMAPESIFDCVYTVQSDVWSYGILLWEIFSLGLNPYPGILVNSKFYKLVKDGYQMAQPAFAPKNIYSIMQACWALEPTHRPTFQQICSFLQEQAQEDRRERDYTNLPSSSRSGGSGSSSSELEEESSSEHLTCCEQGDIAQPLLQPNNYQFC
T1 sequence (P07333 20-512 limits assumed): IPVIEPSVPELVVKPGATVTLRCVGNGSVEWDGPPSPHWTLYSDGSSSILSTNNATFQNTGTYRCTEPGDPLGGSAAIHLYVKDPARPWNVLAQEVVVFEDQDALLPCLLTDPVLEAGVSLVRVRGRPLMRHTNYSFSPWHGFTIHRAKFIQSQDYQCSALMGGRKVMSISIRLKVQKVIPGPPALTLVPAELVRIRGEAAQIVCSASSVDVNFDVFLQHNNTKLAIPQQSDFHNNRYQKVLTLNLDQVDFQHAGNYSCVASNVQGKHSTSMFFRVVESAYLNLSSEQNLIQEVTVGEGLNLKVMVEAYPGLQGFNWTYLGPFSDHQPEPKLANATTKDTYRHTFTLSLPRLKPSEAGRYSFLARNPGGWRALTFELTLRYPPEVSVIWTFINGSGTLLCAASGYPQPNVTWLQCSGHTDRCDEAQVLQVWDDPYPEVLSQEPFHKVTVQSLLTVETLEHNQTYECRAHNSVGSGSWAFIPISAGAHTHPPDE
T3 sequence (P07333 20-512 limits assumed): as above
Sequence of CSF-1R on CSF-1R/SRE-Luc/HEK293 reporter cells (P07333 20-972 limits assumed): as the sequence (P07333 20-972) above

Binder | Kd [1] [nM] | koff [1] [s⁻¹] | kon [1] [M⁻¹ s⁻¹] | other results
Hm4L (antibody, V domains shown) VH: EVQLVQSGAEVKKPGASVKVSCKASGYTFTDYNMDWVRQAPGQGLEWMGGIIPNYDSATYNQKFKGRVTMTRDTSTSTVYMELSSLRSEDTAVYYCARKGGGYVNWYFDVWGQGTTVTVSS VL: DIQMTQSPSSLSASVGDRVTITCHASQNINVWLSWYQQKPGKAPKLLIYKASNLHTGVPSRFSGSGSGTDFTFTISSLQPEDIATYYCQQGESYPYTFGGGTKVEIK | 0.125 | 1.4e-05 | 112000 | 
Lm4H (antibody, V domains shown) VH: EVQLVQSGAEVKKPGASVKVSCKASGYTFTDYNMDWVRQAPGQGLEWMGDIIPNYDSATYNQKFKGRVTMTRDTSTSTVYMELSSLRSEDTAVYYCARKGGGYVNWYFDVWGQGTTVTVSS VL: DIQMTQSPSSLSASVGDRVTITCHASQNINVYLNWYQQKPGKAPKLLIYKASNLHTGVPSRFSGSGSGTDFTFTISSLQPEDIATYYCQQGESYPYTFGGGTKVEIK | 0.189 | 1.93e-05 | 102000 | 
Hm1L (antibody, V domains shown) VH: EVQLVQSGAEVKKPGASVKVSCKASGYTFTEYNMDWVRQAPGQGLEWMGDIIPNYDSATYNQKFKGRVTMTRDTSTSTVYMELSSLRSEDTAVYYCARKGGGYVNWYFDVWGQGTTVTVSS VL: DIQMTQSPSSLSASVGDRVTITCHASQNINVWLSWYQQKPGKAPKLLIYKASNLHTGVPSRFSGSGSGTDFTFTISSLQPEDIATYYCQQGESYPYTFGGGTKVEIK | 0.0853 | 2.2e-05 | 258000 | 
Hm6L (antibody, V domains shown) VH: EVQLVQSGAEVKKPGASVKVSCKASGYTFTDYNMDWVRQAPGQGLEWMGDIIPNYDSATYAQKFKGRVTMTRDTSTSTVYMELSSLRSEDTAVYYCARKGGGYVNWYFDVWGQGTTVTVSS VL: DIQMTQSPSSLSASVGDRVTITCHASQNINVWLSWYQQKPGKAPKLLIYKASNLHTGVPSRFSGSGSGTDFTFTISSLQPEDIATYYCQQGESYPYTFGGGTKVEIK | 0.0785 | 1.53e-05 | 195000 | EC50 [3]: 0.199 mg/L
Lm1H (antibody, V domains shown) VH: EVQLVQSGAEVKKPGASVKVSCKASGYTFTDYNMDWVRQAPGQGLEWMGDIIPNYDSATYNQKFKGRVTMTRDTSTSTVYMELSSLRSEDTAVYYCARKGGGYVNWYFDVWGQGTTVTVSS VL: DIQMTQSPSSLSASVGDRVTITCRASQNINVWLSWYQQKPGKAPKLLIYKASNLHTGVPSRFSGSGSGTDFTFTISSLQPEDIATYYCQQGESYPYTFGGGTKVEIK | 0.0683 | 1.4e-05 | 205000 | 
Hm3L (antibody, V domains shown) VH: EVQLVQSGAEVKKPGASVKVSCKASGYTFTDYNMHWVRQAPGQGLEWMGDIIPNYDSATYNQKFKGRVTMTRDTSTSTVYMELSSLRSEDTAVYYCARKGGGYVNWYFDVWGQGTTVTVSS VL: DIQMTQSPSSLSASVGDRVTITCHASQNINVWLSWYQQKPGKAPKLLIYKASNLHTGVPSRFSGSGSGTDFTFTISSLQPEDIATYYCQQGESYPYTFGGGTKVEIK | 0.082 | 2.1e-05 | 256000 | 
Hm5L (antibody, V domains shown) VH: EVQLVQSGAEVKKPGASVKVSCKASGYTFTDYNMDWVRQAPGQGLEWMGDIIPNYESATYNQKFKGRVTMTRDTSTSTVYMELSSLRSEDTAVYYCARKGGGYVNWYFDVWGQGTTVTVSS VL: DIQMTQSPSSLSASVGDRVTITCHASQNINVWLSWYQQKPGKAPKLLIYKASNLHTGVPSRFSGSGSGTDFTFTISSLQPEDIATYYCQQGESYPYTFGGGTKVEIK | 0.0794 | 2.55e-05 | 321000 | 
Lm3H (antibody, V domains shown) VH: EVQLVQSGAEVKKPGASVKVSCKASGYTFTDYNMDWVRQAPGQGLEWMGDIIPNYDSATYNQKFKGRVTMTRDTSTSTVYMELSSLRSEDTAVYYCARKGGGYVNWYFDVWGQGTTVTVSS VL: DIQMTQSPSSLSASVGDRVTITCHASQNINVWLNWYQQKPGKAPKLLIYKASNLHTGVPSRFSGSGSGTDFTFTISSLQPEDIATYYCQQGESYPYTFGGGTKVEIK | 0.0935 | 1.45e-05 | 155000 | EC50 [3]: 0.253 mg/L
Hm2L (antibody, V domains shown) VH: EVQLVQSGAEVKKPGASVKVSCKASGYTFTSYNMDWVRQAPGQGLEWMGDIIPNYDSATYNQKFKGRVTMTRDTSTSTVYMELSSLRSEDTAVYYCARKGGGYVNWYFDVWGQGTTVTVSS VL: DIQMTQSPSSLSASVGDRVTITCHASQNINVWLSWYQQKPGKAPKLLIYKASNLHTGVPSRFSGSGSGTDFTFTISSLQPEDIATYYCQQGESYPYTFGGGTKVEIK | 0.0963 | 2.9e-05 | 301000 | 
Lm2H (antibody, V domains shown) VH: EVQLVQSGAEVKKPGASVKVSCKASGYTFTDYNMDWVRQAPGQGLEWMGDIIPNYDSATYNQKFKGRVTMTRDTSTSTVYMELSSLRSEDTAVYYCARKGGGYVNWYFDVWGQGTTVTVSS VL: DIQMTQSPSSLSASVGDRVTITCHASQNINVYLSWYQQKPGKAPKLLIYKASNLHTGVPSRFSGSGSGTDFTFTISSLQPEDIATYYCQQGESYPYTFGGGTKVEIK | 0.109 | 1.14e-05 | 105000 | 

The next lines start with results.

Kd [1] [nM] | koff [1] [s⁻¹] | kon [1] [M⁻¹ s⁻¹] | Binder | other results
0.0605 | 1.3e-05 | 215000 | hz73 (antibody, V domains shown, also called 人源化抗体hz73) VH: EVQLVQSGAEVKKPGASVKVSCKASGYTFTDYNMDWVRQAPGQGLEWMGDIIPNYDSATYNQKFKGRVTMTRDTSTSTVYMELSSLRSEDTAVYYCARKGGGYVNWYFDVWGQGTTVTVSS VL: DIQMTQSPSSLSASVGDRVTITCHASQNINVWLSWYQQKPGKAPKLLIYKASNLHTGVPSRFSGSGSGTDFTFTISSLQPEDIATYYCQQGESYPYTFGGGTKVEIK | IC50, inhibition of CSF-1-stimulated (7.2 ng/ml) SRE-Luc reporter in CSF-1R/SRE-Luc/HEK293 cells [2]: 0.31 mg/L; IC50, inhibition of IL-34-stimulated (85.06 ng/ml) SRE-Luc reporter in CSF-1R/SRE-Luc/HEK293 cells [2]: 0.8 mg/L; EC50 [3]: 0.196 mg/L; IC50 [4]: 0.339 nM; IC50 [5]: 0.393 nM
0.188 | 1.9e-05 | 101000 | Lm6H (antibody, V domains shown) VH: EVQLVQSGAEVKKPGASVKVSCKASGYTFTDYNMDWVRQAPGQGLEWMGDIIPNYDSATYNQKFKGRVTMTRDTSTSTVYMELSSLRSEDTAVYYCARKGGGYVNWYFDVWGQGTTVTVSS VL: DIQMTQSPSSLSASVGDRVTITCHASQNINVWLSWYQQKPGKAPKLLIYKASNLETGVPSRFSGSGSGTDFTFTISSLQPEDIATYYCQQGESYPYTFGGGTKVEIK | 
0.138 | 2.02e-05 | 146000 | Lm4Hm7 (antibody, V domains shown) VH: EVQLVQSGAEVKKPGASVKVSCKASGYTFTSYNMHWVRQAPGQGLEWMGDIIPNYESATYAQKFKGRVTMTRDTSTSTVYMELSSLRSEDTAVYYCARKGGGYVNWYFDVWGQGTTVTVSS VL: DIQMTQSPSSLSASVGDRVTITCHASQNINVYLNWYQQKPGKAPKLLIYKASNLHTGVPSRFSGSGSGTDFTFTISSLQPEDIATYYCQQGESYPYTFGGGTKVEIK | 
0.0634 | 1.3e-05 | 205000 | Lm7H (antibody, V domains shown) VH: EVQLVQSGAEVKKPGASVKVSCKASGYTFTDYNMDWVRQAPGQGLEWMGDIIPNYDSATYNQKFKGRVTMTRDTSTSTVYMELSSLRSEDTAVYYCARKGGGYVNWYFDVWGQGTTVTVSS VL: DIQMTQSPSSLSASVGDRVTITCRASQNINVWLSWYQQKPGKAPKLLIYDASNLETGVPSRFSGSGSGTDFTFTISSLQPEDIATYYCQQGESYPYTFGGGTKVEIK | EC50 [3]: 0.201 mg/L
0.107 | 1.23e-05 | 115000 | Lm7Hm7 (antibody, V domains shown) VH: EVQLVQSGAEVKKPGASVKVSCKASGYTFTSYNMHWVRQAPGQGLEWMGDIIPNYESATYAQKFKGRVTMTRDTSTSTVYMELSSLRSEDTAVYYCARKGGGYVNWYFDVWGQGTTVTVSS VL: DIQMTQSPSSLSASVGDRVTITCRASQNINVWLSWYQQKPGKAPKLLIYDASNLETGVPSRFSGSGSGTDFTFTISSLQPEDIATYYCQQGESYPYTFGGGTKVEIK | 
0.105 | 2.1e-05 | 200000 | Lm5H (antibody, V domains shown) VH: EVQLVQSGAEVKKPGASVKVSCKASGYTFTDYNMDWVRQAPGQGLEWMGDIIPNYDSATYNQKFKGRVTMTRDTSTSTVYMELSSLRSEDTAVYYCARKGGGYVNWYFDVWGQGTTVTVSS VL: DIQMTQSPSSLSASVGDRVTITCHASQNINVWLSWYQQKPGKAPKLLIYDASNLHTGVPSRFSGSGSGTDFTFTISSLQPEDIATYYCQQGESYPYTFGGGTKVEIK | 
0.03 | 6.54e-06 | 218000 | ch73 (antibody, human IgG1, kappa, V domains shown, also called 嵌合抗体ch73; 73号) VH: EVQLQQFGAELVKPGASVKISCKASGYTFTDYNMDWMKQSHGKSLEWIGDIIPNYDSATYNQKFKGKATLTVDRSSSTAYMELRSLSSEDTAVYYCARKGGGYVNWYFDVWGAGTTVTVSS VL: DIQMNQSPSSLSASLGDTITITCHASQNINVWLSWYQQKPGNIPKLLIYKASNLHTGVPSRFSGSGSGTGFTLTISSLQPEDIATYYCQQGESYPYTFGGGTKLEIKR | Kd [6]: 0.03 nM; koff [6]: 6.54e-06 s⁻¹; kon [6]: 218000 M⁻¹ s⁻¹; IC50 [4]: 0.323 nM; IC50 [5]: ~0.71 nM
